In the DeepSol protein solubility set:

test: soluble on expression in E. coli; label from the status in PepcDB or PDB records

**Q.** Which “soluble on expression in E. coli” value does the source give for “MILDADIKTQLSQYLQLMENDILLKVSAGNDDVSKDMLALVDELATMSSKITVEKVELERTPSFSVNRPGEDTGVVFAGIPLGHEFTSLVLALLQVSGRAPKVEQKLIDQIKNIQGEYHFESYISLSCHNCPDVVQALNVMSVLNSGITHTMIDGAAFKEEVESKDIMAVPTVFLNGESFGSGRMTLEEILAKMGNGPDASELSDKDPYDVLVVGGGPAGASAAIYAARKGIRTGIVAERFGGQVMDTMGIENFISVKRTEGPKLVASLEEHVKEYDIDVMNLQRAKRLEKKELIEVELENGAILKSKSVIVSTGARWRNVGVPGEAEFKNKGVAYCPHCDGPLFTGKDVAVIGGGNSGIEAAIDLAGIVKHVTVLEFMPELKADAVLQERLNSLPNVTVLKNVQTKEITGTDKVNGISYIDRETEEVHHVELQGVFVQIGLVPNTDWLGETVERVRGEIVTDKHGATNVPGVFAAGDCTNNPYKQIIISMGSGANAALGAFDYLIRN” here?
**A.** not soluble

**Q.** With “MGSSHHHHHHSSGLVIRGSHMRIALMQHTARPLDPQHNLDLIDDAAARASEQGAQLLLTPELFGFGYVPSQICAQVSAEQVDAARSRLRGIARDRGIALVWSLPGPEGPEQRGITAELADEHGEVLASYQKVQLYGPEEKAAFVPGEQPPPVLSWGGRQLSLLVCYDVEFPEMVRAAAARGAQLVLVPTALAGDETSVPGILLPARAVENGITLAYANHCGPEGGLVFDGGSVVVGPAGQPLGELGVEPGLLVVDLPDQSQDAGSDSADYLQDRRAELHRNWL” as the sequence, how does the “soluble on expression in E. coli” value read?
**A.** soluble

**Q.** Which “soluble on expression in E. coli” value does the source give for “MDTQQIDVMVADASHEVYVDTILETIRNAAKVRGTGIAERTHEYVATKMKEGKAIIALCGDVFAGFTYIESWGNKQYVATSGLIVHPDFRGLGLAKRIKQASFQLARLRWPRAKIFSLTSGAAVMKMNTELGYVPVT” here?
**A.** soluble

**Q.** For “MFSAPLENTMLCNMGGSHEKARARENERMRERERGKEQRTYFATGSLARCQAGSVRRAPGTRRHPGSSTVQGFGTVVSLEANKEMKKEETFFFASLFLYRLGGPLTGTVGYANKTTGR”, which “soluble on expression in E. coli” value is on record?
**A.** not soluble

**Q.** For “MVRVEDSNGADTDTNPEGESSGYVRLAGNGLPGGEQQQASSSGVAAAPSVDSSPGRSVPLAIASSSSPANVANNQYAIPVDENGHRYVGLVNQAMTCYLNSLVQSLYMTPEFRNAMYDWEYVQQPAHIKEQRKKAEQSIPCQLQKLFLLLQTSENDSLETKDLTQSFGWTSNEAYDQHDVQELCRLMFDALEHKWKGTEHEKLIQDLYRGTMEDFVACLKCGRESVKTDYFLDLPLAVKPFGAIHAYKSVEEALTAFVQPELLDGSNQYMCENCKSKQDAHKGLRITQFPYLLTIQLKRFDFDYNTMHRIKLNDKMTFPDVLDLNDYVNKEKRSTTSSAWQQIGKNKSENEEDDMELGSPNPKRCTPGVQSPNRYQGSENVCVGQPIDHAAVDDIVKTSGDNVYELFSVMVHSGNAAGGHYFAYIKNLDQDRWYVFNDTRVDFATPLEIEKSFGGHPSGWNQSNTNAYMLMYRRIDPKRNARFILSNQLPQHIKDSQEKWKRLEREAEDERLRKLSLIQVYVTINYPFPSVVTLPDKKQLDLTPQKYQIAEDFGEYKTEISREMPIKNVFNHAFEFFNERARAYNLPFTKNSARLIYVEHGSLMMDFKSKADMDKKLRSVFNVNHGEPGSMYGVHFILDVRIASSFFPVDIKNKITIKVQRVDIGKKTTANELIVVVDANEKMIKVKSWIGGQFRDDIHGVLNARVVLEVASSRCEFMMIDVSHNATEFGSLIQQYVGHTTPTLYYDGGLNTMVTKESQEATLADRKLPFDKSVMYHILDRKCFSTMVKVRLPSQEEIEKAASTKNAYQGPTWAETIAIMKEEDRLWNEPRAAVEVMSTVSRTDTTDHALVADTDDEPIPSGRGSTASMRSVSMDDIDADIGISGSLCNNTPQMSPCVSEGDDADESQLDGKSQLMSDYMQKTSPDFYYNRDPQNHLNKNLKIALGDETPSESLSAVSSGQSTLVPSTSNQALSSMTRSDEAVDGKIVTVFSHENFHKLDVDSRMRVLEFKKWVAEQLEMDKDQFVIVKHASDDGSDSGYEANFMDDETVSGAFQSCFISIKLRAPLKSDEKMMQIILFDILENLRENWKPLFELPVSQSTVIGDVLLQCLRMYKEVYGEELTPKMVRLRELGGSGVGTGRAVLNPNDTLEKRSYNWCSHLYLQIITDEAMIGKPGEPIMVRRFRPSTVEVNPTHEVLVDANAENPVVSFVEALSKISGIPVERLAITDLKEFNWQKWPYLKSRLDMLENKVNFTKDLQVTYPLPREFLDKVGSRVLYYKDSDEEAKVLSEDERKQIKIKENGQSANANRRKERPLRIQMSSVCEA”, which “soluble on expression in E. coli” value is on record?
**A.** not soluble

**Q.** Which “soluble on expression in E. coli” value does the source give for “MGSDKIHHHHHHMHNHPAKRINSIKLCLDVKVALTPQTESRDMAASSKDAAFWSKISRKYAADPIRNMDGYLQTLDRTKSYLKPEDHVLEIGCGTGSTALLLAPHVAHITGTDLAPGMIEIAAEKRAKEGLENVTFKVAETLDHNPQDGAYDAILAHNLLHLLHDLDQSLQRIAALTKTGGVFISKTVCAPKAGGIKYALIRALAIPLMQRIGKAPYVNFISVPDLERRIERAGFEICEVISQPGLMQSHYVVARKL” here?
**A.** not soluble

**Q.** With “RTEVVAVALDTSLEELKGRFVESGISKIIVYDGNIDNVVGYIHSSEMFRSPKDWRNHVKEVPIVPETMAAHKLMKLFMQQKKTIAVVVDEFGGTSGIVSLEDLVEEIFGDIEDEHDNTSYICKQIGE” as the sequence, how does the “soluble on expression in E. coli” value read?
**A.** not soluble

**Q.** For “MVRMYEERTATFHSMNEGVIAIDNRLVITIFNEKAKQIFEVQGDLIGKVIWEVLKDSRLPEIVERNKAVYNEEIRVSGKVIMSSRIPIVMKKKVIGAVAIFQDRTEAAKMAEELTGVRNFVEALRVQNHEHMNKLHTIAGLIQLGKSEKALQLAFQASTEQENVTEFLHRSIQNDAAAGLLLSKIRRGRELGIAVHIDENSSLQQFPEHVDQHDIVVLLGNLIENAFGSFETVQSEDKRIDISIEQTDDILAILIEDNGCGIEPTHMPRLYDKGFTVNKTGGTGYGLYLVKQIIDKGSGTIEVDSHAGQGTSFSIVFPMKGE”, which “soluble on expression in E. coli” value is on record?
**A.** not soluble

**Q.** Which “soluble on expression in E. coli” value does the source give for “LVSGVICAAIGAVALLGTQAVLKSTNSTEFCVSCHSMTHPQAEWEGSVHFSNRKGIRAECADCHVPQDSWHYVKAKVAAVKDVWHTFVTNKIPDQEAYEKHRLEMAQHVWQDMKETDSATCRSCHSFDAMVLAEQREAAQKMHKIAQETNQTCIDCHKGIAHFMPEMPADNSAALGELAKHGGKFNSADKVLYSLAMTSAKLAQGSEIRLLPFAELHNWQEEGDKIVAVVKGWQQVGAEGVIYSGLGQRIMVGLVDDAAKDKLTVHQVVNDKVTNSDWKEVSTSVSLPKAALTADIKSLNDFGSNLNQTHCSGCHAPISANHYTA” here?
**A.** not soluble

**Q.** For “DVTGLATGFRDLDKITTGLHPDQLIILAARPAVGKTAFVLNIAQNVGTKMNRPVAIFSLEMGAESLVDRMLASEGMVDAHNLRTGQLTEQDWQNITLAQGTLADAPIYIDDTPGIKVTEIRARARKLDQELEKGLGLIVIDYLQLITGTRPENRQQEVSDISRQLKILAKELGVPVIALSQLSRGVEQRQDKRPVLSDI”, which “soluble on expression in E. coli” value is on record?
**A.** not soluble

**Q.** Which “soluble on expression in E. coli” value does the source give for “MRSALSLKPSNGNAAKSQAVNNKNVIKNAPLGGKLTRQIGTSNLLQQALPSKKIDESPIIKIDAKDSFKVFEDQEPEKENSSENVDATEKDSNVIPAEDNNMIHELERKMEEKSRAEKLKFKFMQTRDNSDITSRFSEPPSEFSVLCDDDDCDKVSVASSTFTTSVRATFSSFHFDENQRKKEFGKEEAVKKIQKKAAKEARDDSMFSSEEFFPDIIKYMLHRQTKNRASHECFDIQSQVNEEMRTILIDWFSDVVKEYNFQKETFHLAVSLVDRALSMFNIDKMRFQLVGTTSMMIAVKYEEIFPPEIEDFALITDNTYRVPDILLMERFLLGKFDFVVAMPTSSWFGTCFAKRMNFTKKMRNTVHYLLELSLIDVHFLRYRPSDIAAAACCFANLQADVESWPQKMVDDTGISTEDFVDVLRDLHRMYLNASTADFKSIFYNYSETAQMEVALLPAPTDKLRSMFPSIFVTAPKSSNDSSSPQ” here?
**A.** not soluble

**Q.** Which “soluble on expression in E. coli” value does the source give for “MPLSYSSPSSSEERSDDPSKYDGDFGVPQICFCGKQLELVERLIGDQKKTFLKCPMSGQDDNYHVDKGWDLAVHEQCFCIDKRFGEHRELIQNAFKFGGDSNRLQINQIHAEIEDLKHRLDKKDAEIARLMDALGKK” here?
**A.** not soluble

**Q.** Which “soluble on expression in E. coli” value does the source give for “MGSDKIHHHHHHMVDTHAHLHFHQFDDDRNAVISSFEENNIEFVVNVGVNLEDSKKSLDLSKTSDRIFCSVGVHPHDAKEVPEDFIEHLEKFAKDEKVVAIGETGLDFFRNISPAEVQKRVFVEQIELAGKLNLPLVVHIRDAYSEAYEILRTESLPEKRGVIHAFSSDYEWAKKFIDLGFLLGIGGPVTYPKNEALREVVKRVGLEYIVLETDCPFLPPQPFRGKRNEPKYLKYVVETISQVLGVPEAKVDEATTENARRIFLEVKE” here?
**A.** soluble

**Q.** With “MKRMIVRMTLPLLIVCLAFSSFSASARAASEEKYWDHWIERHAQPLDASNASNKDLRFLKKVLKGKRIVQLGETTHGAGEINATKVRMIKYLHEELGYDVLAFESGFPDTNASYLNMDQLTPKSTMKNSIYAVWHTEDVVELFDYMKEQKEKGDPLILTGFDIQSMKNSFNVAATQWVKAVDPEKAELLSQSENDFSTLVTDSNTFDEFSQKKEKLVKNYQKLIKFTKTHASELKENLPKEPKAYEMFMHSLQLRIDVMETYMLEEMKEKLEEYPENIEDFSFFMRDRMMAEQFQWVADTLYPKKKIIVWGHNYHLRKQNTKMIKDWVQLNGPNMGDYLPERLKKQTYTIGIYAYSGASLDSSDNKTVKPVTSPPPSGSLEALLKAADRPAVFVDFLHTKNKKGTSWMYTPRTALYWGYMEEQMILKEQYDGVIWLEHITPSVIIKLEHHHHHH” as the sequence, how does the “soluble on expression in E. coli” value read?
**A.** not soluble

**Q.** Which “soluble on expression in E. coli” value does the source give for “APFTLLYDLLHPYGFNRDQIREVATSLDNPPGASFFSSSHRLLRERDRLTVLPLSPKMEVPELFGLKIGDSFLDLPDGKQLSWQRGTPADLDLEGLRLPNTKLLLPLAFVESLQEELGVRRPQRGDHIHPYGMKGCKTVSRFFIDRHVPRSRREEAWLLCQGTEVVWIMGYAADRRFAIDELSDTEEYLLFSFGL” here?
**A.** not soluble

**Q.** Which “soluble on expression in E. coli” value does the source give for “MAEKTRYSDAELEEFRAIIMEKLELAQRDYDQLKMSLMGLDGNDTDDTSPTYKVLEEGANTLSKEETTRLAQRQLKFIQGLQAALVRIENKTYGICRETGKLIPAERLRAVPHATLSIEAKNSGKK” here?
**A.** not soluble

**Q.** For “MELKFVVPDMAETFGKLGYAGEGEILTEGYGRNTVVIGRSYHLYSSKQRADDIEVVVAAEAGEKDFDQDQPLKAVNPHLVAKGYAIENRGFTDYVLYVDDLVKA”, which “soluble on expression in E. coli” value is on record?
**A.** not soluble

**Q.** Which “soluble on expression in E. coli” value does the source give for “MFRSVVVSVRQPAVAGYFYPDDPLTLKQTVLNFLDQAPIHKPAPKAILVPHAGYVYSGAVAASAYASLRDKKDTINKIILLGPAHRLYFKGIAYDPVDKFATPLGEIDQDKELLTQIIDLPYVYSLPEAHQNEHCLEVQLPFCQMIFSKFKILPLVIGETNPQDVARLIARIWGGDDTLLIISSDLSHYLPYHIAQREDKKTCLSIDTLNGEEILHDAACGYFPLRGFLYFGRQNHVYSRLLDLRNSGDTAGDKERVVGYAAYHFYQKLKFSEHCADELKYIAKETIRLQTEENKALTINYNDYSQLLQMRVPTFITLKKNGMLRGCMGSLTTKDPLAENIIYNSIRAASADPRFPQIKPCELKELSLTISLIKPLSPLHFDSEEELKSQLQIGLDGLVLICGPYQATFLPSVWESVKTKDEFINHLKLKMGLSENFWSSEMRALRYATEIIKLEHHHHHH” here?
**A.** not soluble

**Q.** Which “soluble on expression in E. coli” value does the source give for “MKNFVRTTLLAATLAGVSFGAFATAVPNPPLPAQDPIVQHLKLTNDQITRIKKLHQQLETDVSQISMKGIKDGALIEVIKSGKWDDAAVKQQLAAFSNIEQQARYYRVKYYFDLSKVLTPEQRQQVQQDLAQALE” here?
**A.** not soluble

**Q.** With “MSLKLYYCRGACSLVVRIILNDLGLNFQDEEVDLKVKKTAGGDDFFKINPKGAVPTLVLDNGDILTENQVILQYLADTTPGQKLLAAVGESKRYHTLEWLNYISTELHKSLGMFFNPTVSEEIKSKILTPLVMTRFAYTNTRLEKGSYLMGNEFSLPDAYLFVMVSWAKYFKLDLSQFEHLTKFMDLMLARSSVAKSLQQEKLEGHHHHHH” as the sequence, how does the “soluble on expression in E. coli” value read?
**A.** soluble
